Molecular target: T1, EGFP-MOV10 (human, UniProt Q9HCE1 1-1003)
T1 sequence: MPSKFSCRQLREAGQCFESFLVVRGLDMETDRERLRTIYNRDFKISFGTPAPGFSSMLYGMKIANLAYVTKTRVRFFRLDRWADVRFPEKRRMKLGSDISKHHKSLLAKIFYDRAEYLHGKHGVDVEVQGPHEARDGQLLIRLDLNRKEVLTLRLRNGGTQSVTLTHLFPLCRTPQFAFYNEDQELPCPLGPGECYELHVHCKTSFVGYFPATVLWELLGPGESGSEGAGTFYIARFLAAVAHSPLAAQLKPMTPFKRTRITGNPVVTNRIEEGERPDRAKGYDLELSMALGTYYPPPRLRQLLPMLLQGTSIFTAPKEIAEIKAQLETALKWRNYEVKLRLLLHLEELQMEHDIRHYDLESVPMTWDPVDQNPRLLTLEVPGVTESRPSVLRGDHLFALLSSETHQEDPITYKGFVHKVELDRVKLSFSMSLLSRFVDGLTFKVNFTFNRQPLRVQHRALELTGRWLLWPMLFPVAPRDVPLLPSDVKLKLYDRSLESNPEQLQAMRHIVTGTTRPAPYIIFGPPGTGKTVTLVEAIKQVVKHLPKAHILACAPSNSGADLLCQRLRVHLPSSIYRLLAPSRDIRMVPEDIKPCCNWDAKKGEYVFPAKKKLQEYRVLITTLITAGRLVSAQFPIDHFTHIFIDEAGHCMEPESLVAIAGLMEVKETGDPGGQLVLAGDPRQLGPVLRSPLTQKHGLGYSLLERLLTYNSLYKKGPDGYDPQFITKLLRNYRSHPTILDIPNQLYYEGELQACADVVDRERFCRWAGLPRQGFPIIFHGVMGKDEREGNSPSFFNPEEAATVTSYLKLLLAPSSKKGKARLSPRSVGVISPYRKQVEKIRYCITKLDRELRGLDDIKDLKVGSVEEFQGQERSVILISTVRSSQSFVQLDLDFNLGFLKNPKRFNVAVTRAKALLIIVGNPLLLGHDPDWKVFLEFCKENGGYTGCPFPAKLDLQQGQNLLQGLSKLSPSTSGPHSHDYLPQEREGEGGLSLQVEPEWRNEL
Assay: co-IP

fold enrichment in the co-IP relative to TUT7: ~10 fold
B1: TUT4 (natural protein)
chain: MEESKTLKSENHEPKKNVICEESKAVQVIGNQTLKARNDKSVKEIENSSPNRNSSKKNKQNDICIEKTEVKSCKVNAANLPGPKDLGLVLRDQSHCKAKKFPNSPVKAEKATISQAKSEKATSLQAKAEKSPKSPNSVKAEKASSYQMKSEKVPSSPAEAEKGPSLLLKDMRQKTELQQIGKKIPSSFTSVDKVNIEAVGGEKCALQNSPRSQKQQTCTDNTGDSDDSASGIEDVSDDLSKMKNDESNKENSSEMDYLENATVIDESALTPEQRLGLKQAEERLERDHIFRLEKRSPEYTNCRYLCKLCLIHIENIQGAHKHIKEKRHKKNILEKQEESELRSLPPPSPAHLAALSVAVIELAKEHGITDDDLRVRQEIVEEMSKVITTFLPECSLRLYGSSLTRFALKSSDVNIDIKFPPKMNHPDLLIKVLGILKKNVLYVDVESDFHAKVPVVVCRDRKSGLLCRVSAGNDMACLTTDLLTALGKIEPVFIPLVLAFRYWAKLCYIDSQTDGGIPSYCFALMVMFFLQQRKPPLLPCLLGSWIEGFDPKRMDDFQLKGIVEEKFVKWECNSSSATEKNSIAEENKAKADQPKDDTKKTETDNQSNAMKEKHGKSPLALETPNRVSLGQLWLELLKFYTLDFALEEYVICVRIQDILTRENKNWPKRRIAIEDPFSVKRNVARSLNSQLVYEYVVERFRAAYRYFACPQTKGGNKSTVDFKKREKGKISNKKPVKSNNMATNGCILLGETTEKINAEREQPVQCDEMDCTSQRCIIDNNNLLVNELDFADHGQDSSSLSTSKSSEIEPKLDKKQDDLAPSETCLKKELSQCNCIDLSKSPDPDKSTGTDCRSNLETESSHQSVCTDTSATSCNCKATEDASDLNDDDNLPTQELYYVFDKFILTSGKPPTIVCSICKKDGHSKNDCPEDFRKIDLKPLPPMTNRFREILDLVCKRCFDELSPPCSEQHNREQILIGLEKFIQKEYDEKARLCLFGSSKNGFGFRDSDLDICMTLEGHENAEKLNCKEIIENLAKILKRHPGLRNILPITTAKVPIVKFEHRRSGLEGDISLYNTLAQHNTRMLATYAAIDPRVQYLGYTMKVFAKRCDIGDASRGSLSSYAYILMVLYFLQQRKPPVIPVLQEIFDGKQIPQRMVDGWNAFFFDKTEELKKRLPSLGKNTESLGELWLGLLRFYTEEFDFKEYVISIRQKKLLTTFEKQWTSKCIAIEDPFDLNHNLGAGVSRKMTNFIMKAFINGRKLFGTPFYPLIGREAEYFFDSRVLTDGELAPNDRCCRVCGKIGHYMKDCPKRKSLLFRLKKKDSEEEKEGNEEEKDSRDVLDPRDLHDTRDFRDPRDLRCFICGDAGHVRRECPEVKLARQRNSSVAAAQLVRNLVNAQQVAGSAQQQGDQSIRTRQSSECSESPSYSPQPQPFPQNSSQSAAITQPSSQPGSQPKLGPPQQGAQPPHQVQMPLYNFPQSPPAQYSPMHNMGLLPMHPLQIPAPSWPIHGPVIHSAPGSAPSNIGLNDPSIIFAQPAARPVAIPNTSHDGHWPRTVAPNSLVNSGAVGNSEPGFRGLTPPIPWEHAPRPHFPLVPASWPYGLHQNFMHQGNARFQPNKPFYTQDRCATRRCRERCPHPPRGNVSE

Source: PMC6191937 (Cell, 2018)
